# Experimental data taken from patent US8663912B2, “Fluorogenic substrate for ADAMTS13” (Washington University, priority 2011, dated 2014).
# Molecular target: T1, ADAMTS13 (Homo sapiens, UniProt Q76LX8)
# T1 sequence (Q76LX8 75-1427): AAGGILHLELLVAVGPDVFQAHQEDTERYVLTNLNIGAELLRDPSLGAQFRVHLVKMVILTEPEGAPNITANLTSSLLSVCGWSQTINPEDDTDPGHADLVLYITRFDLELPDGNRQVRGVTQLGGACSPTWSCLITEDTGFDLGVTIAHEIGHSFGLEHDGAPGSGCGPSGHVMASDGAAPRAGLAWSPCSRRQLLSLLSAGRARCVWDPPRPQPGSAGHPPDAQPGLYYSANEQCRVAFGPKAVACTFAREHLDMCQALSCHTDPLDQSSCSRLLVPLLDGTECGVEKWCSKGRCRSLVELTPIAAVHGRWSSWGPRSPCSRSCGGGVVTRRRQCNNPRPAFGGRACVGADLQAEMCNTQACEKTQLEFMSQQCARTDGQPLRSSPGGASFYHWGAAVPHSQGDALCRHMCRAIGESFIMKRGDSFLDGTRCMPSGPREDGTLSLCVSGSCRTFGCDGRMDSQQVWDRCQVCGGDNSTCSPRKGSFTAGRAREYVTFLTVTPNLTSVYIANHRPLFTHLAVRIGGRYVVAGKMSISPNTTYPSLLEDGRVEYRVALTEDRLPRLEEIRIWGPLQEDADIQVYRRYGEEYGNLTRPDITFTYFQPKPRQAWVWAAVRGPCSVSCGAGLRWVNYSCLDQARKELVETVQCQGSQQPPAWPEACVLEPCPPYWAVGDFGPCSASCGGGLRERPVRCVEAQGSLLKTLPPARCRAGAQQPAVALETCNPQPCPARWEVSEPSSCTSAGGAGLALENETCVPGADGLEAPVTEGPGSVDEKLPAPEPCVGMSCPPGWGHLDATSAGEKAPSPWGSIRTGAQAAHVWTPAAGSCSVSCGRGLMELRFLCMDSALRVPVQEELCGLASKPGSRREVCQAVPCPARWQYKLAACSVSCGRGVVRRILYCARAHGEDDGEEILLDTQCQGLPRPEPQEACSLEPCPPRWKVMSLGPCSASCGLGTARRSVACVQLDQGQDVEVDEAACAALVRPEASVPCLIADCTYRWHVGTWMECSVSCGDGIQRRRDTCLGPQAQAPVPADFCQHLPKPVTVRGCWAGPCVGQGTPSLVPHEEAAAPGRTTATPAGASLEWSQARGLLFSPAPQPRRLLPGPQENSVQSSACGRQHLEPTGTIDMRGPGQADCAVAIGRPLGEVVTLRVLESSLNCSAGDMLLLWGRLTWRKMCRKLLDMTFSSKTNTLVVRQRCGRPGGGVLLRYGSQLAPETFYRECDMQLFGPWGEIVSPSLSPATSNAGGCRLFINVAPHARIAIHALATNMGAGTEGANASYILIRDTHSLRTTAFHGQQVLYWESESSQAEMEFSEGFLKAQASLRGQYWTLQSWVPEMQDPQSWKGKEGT
# Assay: Effect of bilirubin and hemoglobin on FRETS-rVWF71 ADAMTS13 assays
# Type: biochemical
# Parameters: FRETS-rVWF71 cleavage by plasma ADAMTS13 (50 μL) was assessed in 200 μL reactions; from tissue; host or cells: human plasma or serum (pooled normal plasma, healthy donors, TTP patients)
substance,measurement,setting,value
hemoglobin,IC50 for inhibition of ADAMTS13 activity,FRETS-rVWF71 substrate,10-15 g/L
same,effect on detection of FRETS-rVWF71 cleavage products,hemoglobin ≦20 g/L,did not affect
